Measurements published in patent US20120045438A1 (Janssen / Centocor, published 2012).

B1: Fab clone 1D08 (IL-13-62 library) (Fab, V domains shown)
VH: QVTLKESGPVLVKPTETLTLTCTVSGFSLSTYGMGVGWIRQPPGKALEWLAHIWWDDVKRYNPALKSRLTISKDTSKSQVVLTMTNMDPVDTATYYCARMGSDYDVWFDYWGQGTLVTVSS
VL: EIVLTQSPATLSLSPGERATLSCRASKSISKYLAWYQQKPGQAPRLLIYSGSTLQSGIPARFSGSGSGTDFTLTISSLEPEDFAVYYCQQHDWEPYTFGQGTKLEIK
notes: Fab on phage pIX
B2: Fab clone 3E03 (IL-13-62 library) (Fab, V domains shown)
VH: QVTLKESGPVLVKPTETLTLTCTVSGFSLSTYGMGVGWIRQPPGKALEWLAHIWWDDVKRYNPALKSRLTISKDTSKSQVVLTMTNMDPVDTATYYCARMGSDYDVWFDYWGQGTLVTVSS
VL: EIVLTQSPATLSLSPGERATLSCRASKSISKYLAWYQQKPGQAPRLLIYSGSTLQSGIPARFSGSGSGTDFTLTISSLEPEDFAVYYCQQHSIGPYTFGQGTKLEIK
notes: Fab on phage pIX
B3: Fab clone 2D09 (IL-13-62 library) (Fab, V domains shown)
VH: QVTLKESGPVLVKPTETLTLTCTVSGFSLSTYGMGVGWIRQPPGKALEWLAHIWWDDVKRYNPALKSRLTISKDTSKSQVVLTMTNMDPVDTATYYCARMGSDYDVWFDYWGQGTLVTVSS
VL: EIVLTQSPATLSLSPGERATLSCRASKSISKYLAWYQQKPGQAPRLLIYSGSTLQSGIPARFSGSGSGTDFTLTISSLEPEDFAVYYCQQHNVGPYTFGQGTKLEIK
notes: Fab on phage pIX
B4: Fab clone 3D11 (IL-13-62 library) (Fab, V domains shown)
VH: QVTLKESGPVLVKPTETLTLTCTVSGFSLSTYGMGVGWIRQPPGKALEWLAHIWWDDVKRYNPALKSRLTISKDTSKSQVVLTMTNMDPVDTATYYCARMGSDYDVWFDYWGQGTLVTVSS
VL: EIVLTQSPATLSLSPGERATLSCRASKSISKYLAWYQQKPGQAPRLLIYSGSTLQSGIPARFSGSGSGTDFTLTISSLEPEDFAVYYCQQHLNGPYTFGQGTKLEIK
notes: Fab on phage pIX
B5: Fab clone 1G05 (IL-13-62 library) (Fab, V domains shown)
VH: QVTLKESGPVLVKPTETLTLTCTVSGFSLSTYGMGVGWIRQPPGKALEWLAHIWWDDVKRYNPALKSRLTISKDTSKSQVVLTMTNMDPVDTATYYCARMGSDYDVWFDYWGQGTLVTVSS
VL: EIVLTQSPATLSLSPGERATLSCRASKSISKYLAWYQQKPGQAPRLLIYSGSTLQSGIPARFSGSGSGTDFTLTISSLEPEDFAVYYCQQQDIGPYTFGQGTKLEIK
notes: Fab on phage pIX
B6: Fab clone 1H02 (IL-13-62 library) (Fab, V domains shown)
VH: QVTLKESGPVLVKPTETLTLTCTVSGFSLSTYGMGVGWIRQPPGKALEWLAHIWWDDVKRYNPALKSRLTISKDTSKSQVVLTMTNMDPVDTATYYCARMGSDYDVWFDYWGQGTLVTVSS
VL: EIVLTQSPATLSLSPGERATLSCRASKSISKYLAWYQQKPGQAPRLLIYSGSTLQSGIPARFSGSGSGTDFTLTISSLEPEDFAVYYCQQHLLGPYTFGQGTKLEIK
notes: Fab on phage pIX
B7: Fab clone 1H05 (IL-13-62 library) (Fab, V domains shown)
VH: QVTLKESGPVLVKPTETLTLTCTVSGFSLSTYGMGVGWIRQPPGKALEWLAHIWWDDVKRYNPALKSRLTISKDTSKSQVVLTMTNMDPVDTATYYCARMGSDYDVWFDYWGQGTLVTVSS
VL: EIVLTQSPATLSLSPGERATLSCRASKSISKYLAWYQQKPGQAPRLLIYSGSTLQSGIPARFSGSGSGTDFTLTISSLEPEDFAVYYCQQQDYGPYTFGQGTKLEIK
notes: Fab on phage pIX
B8: Fab clone 1F05 (IL-13-62 library) (Fab, V domains shown)
VH: QVTLKESGPVLVKPTETLTLTCTVSGFSLSTYGMGVGWIRQPPGKALEWLAHIWWDDVKRYNPALKSRLTISKDTSKSQVVLTMTNMDPVDTATYYCARMGSDYDVWFDYWGQGTLVTVSS
VL: EIVLTQSPATLSLSPGERATLSCRASKSISKYLAWYQQKPGQAPRLLIYSGSTLQSGIPARFSGSGSGTDFTLTISSLEPEDFAVYYCQQHVGGPYTFGQGTKLEIK
notes: Fab on phage pIX
B9: Fab clone 1H12 (IL-13-62 library) (Fab, V domains shown)
VH: QVTLKESGPVLVKPTETLTLTCTVSGFSLSTYGMGVGWIRQPPGKALEWLAHIWWDDVKRYNPALKSRLTISKDTSKSQVVLTMTNMDPVDTATYYCARMGSDYDVWFDYWGQGTLVTVSS
VL: EIVLTQSPATLSLSPGERATLSCRASKSISKYLAWYQQKPGQAPRLLIYSGSTLQSGIPARFSGSGSGTDFTLTISSLEPEDFAVYYCQQHDLGPYTFGQGTKLEIK
notes: Fab on phage pIX
B10: Fab clone 1F04 (IL-13-62 library) (Fab, V domains shown)
VH: QVTLKESGPVLVKPTETLTLTCTVSGFSLSTYGMGVGWIRQPPGKALEWLAHIWWDDVKRYNPALKSRLTISKDTSKSQVVLTMTNMDPVDTATYYCARMGSDYDVWFDYWGQGTLVTVSS
VL: EIVLTQSPATLSLSPGERATLSCRASKSISKYLAWYQQKPGQAPRLLIYSGSTLQSGIPARFSGSGSGTDFTLTISSLEPEDFAVYYCQQHSSGPYTFGQGTKLEIK
notes: Fab on phage pIX
B11: Fab clone 2E07 (IL-13-62 library) (Fab, V domains shown)
VH: QVTLKESGPVLVKPTETLTLTCTVSGFSLSTYGMGVGWIRQPPGKALEWLAHIWWDDVKRYNPALKSRLTISKDTSKSQVVLTMTNMDPVDTATYYCARMGSDYDVWFDYWGQGTLVTVSS
VL: EIVLTQSPATLSLSPGERATLSCRASKSISKYLAWYQQKPGQAPRLLIYSGSTLQSGIPARFSGSGSGTDFTLTISSLEPEDFAVYYCQQPLEAPYTFGQGTKLEIK
notes: Fab on phage pIX
B12: Fab clone 1H06 (IL-13-62 library) (Fab, V domains shown)
VH: QVTLKESGPVLVKPTETLTLTCTVSGFSLSTYGMGVGWIRQPPGKALEWLAHIWWDDVKRYNPALKSRLTISKDTSKSQVVLTMTNMDPVDTATYYCARMGSDYDVWFDYWGQGTLVTVSS
VL: EIVLTQSPATLSLSPGERATLSCRASKSISKYLAWYQQKPGQAPRLLIYSGSTLQSGIPARFSGSGSGTDFTLTISSLEPEDFAVYYCQQHDWAPYTFGQGTKLEIK
notes: Fab on phage pIX
B13: Fab clone 2A11 (IL-13-62 library) (Fab, V domains shown)
VH: QVTLKESGPVLVKPTETLTLTCTVSGFSLSTYGMGVGWIRQPPGKALEWLAHIWWDDVKRYNPALKSRLTISKDTSKSQVVLTMTNMDPVDTATYYCARMGSDYDVWFDYWGQGTLVTVSS
VL: EIVLTQSPATLSLSPGERATLSCRASKSISKYLAWYQQKPGQAPRLLIYSGSTLQSGIPARFSGSGSGTDFTLTISSLEPEDFAVYYCQQHSHGPYTFGQGTKLEIK
notes: Fab on phage pIX
B14: Fab clone 3G01 (IL-13-62 library) (Fab, V domains shown)
VH: QVTLKESGPVLVKPTETLTLTCTVSGFSLSTYGMGVGWIRQPPGKALEWLAHIWWDDVKRYNPALKSRLTISKDTSKSQVVLTMTNMDPVDTATYYCARMGSDYDVWFDYWGQGTLVTVSS
VL: EIVLTQSPATLSLSPGERATLSCRASKSISKYLAWYQQKPGQAPRLLIYSGSTLQSGIPARFSGSGSGTDFTLTISSLEPEDFAVYYCQQQDLGPYTFGQGTKLEIK
notes: Fab on phage pIX
B15: Fab clone 1F12 (IL-13-62 library) (Fab, V domains shown)
VH: QVTLKESGPVLVKPTETLTLTCTVSGFSLSTYGMGVGWIRQPPGKALEWLAHIWWDDVKRYNPALKSRLTISKDTSKSQVVLTMTNMDPVDTATYYCARMGSDYDVWFDYWGQGTLVTVSS
VL: EIVLTQSPATLSLSPGERATLSCRASKSISKYLAWYQQKPGQAPRLLIYSGSTLQSGIPARFSGSGSGTDFTLTISSLEPEDFAVYYCQQHNHGPYTFGQGTKLEIK
notes: Fab on phage pIX
B16: Fab clone 1F11 (IL-13-62 library) (Fab, V domains shown)
VH: QVTLKESGPVLVKPTETLTLTCTVSGFSLSTYGMGVGWIRQPPGKALEWLAHIWWDDVKRYNPALKSRLTISKDTSKSQVVLTMTNMDPVDTATYYCARMGSDYDVWFDYWGQGTLVTVSS
VL: EIVLTQSPATLSLSPGERATLSCRASKSISKYLAWYQQKPGQAPRLLIYSGSTLQSGIPARFSGSGSGTDFTLTISSLEPEDFAVYYCQQHSVGPYTFGQGTKLEIK
notes: Fab on phage pIX
B17: Fab clone 2A07 (IL-13-62 library) (Fab, V domains shown)
VH: QVTLKESGPVLVKPTETLTLTCTVSGFSLSTYGMGVGWIRQPPGKALEWLAHIWWDDVKRYNPALKSRLTISKDTSKSQVVLTMTNMDPVDTATYYCARMGSDYDVWFDYWGQGTLVTVSS
VL: EIVLTQSPATLSLSPGERATLSCRASKSISKYLAWYQQKPGQAPRLLIYSGSTLQSGIPARFSGSGSGTDFTLTISSLEPEDFAVYYCQQHDPGPYTFGQGTKLEIK
notes: Fab on phage pIX
B18: Fab clone 3F08 (IL-13-62 library) (Fab, V domains shown)
VH: QVTLKESGPVLVKPTETLTLTCTVSGFSLSTYGMGVGWIRQPPGKALEWLAHIWWDDVKRYNPALKSRLTISKDTSKSQVVLTMTNMDPVDTATYYCARMGSDYDVWFDYWGQGTLVTVSS
VL: EIVLTQSPATLSLSPGERATLSCRASKSISKYLAWYQQKPGQAPRLLIYSGSTLQSGIPARFSGSGSGTDFTLTISSLEPEDFAVYYCQQHLMGPYTFGQGTKLEIK
notes: Fab on phage pIX
B19: Fab clone 3A10 (IL-13-62 library) (Fab, V domains shown)
VH: QVTLKESGPVLVKPTETLTLTCTVSGFSLSTYGMGVGWIRQPPGKALEWLAHIWWDDVKRYNPALKSRLTISKDTSKSQVVLTMTNMDPVDTATYYCARMGSDYDVWFDYWGQGTLVTVSS
VL: EIVLTQSPATLSLSPGERATLSCRASKSISKYLAWYQQKPGQAPRLLIYSGSTLQSGIPARFSGSGSGTDFTLTISSLEPEDFAVYYCQQHVWGPYTFGQGTKLEIK
notes: Fab on phage pIX
B20: Fab clone 2G06 (IL-13-62 library) (Fab, V domains shown)
VH: QVTLKESGPVLVKPTETLTLTCTVSGFSLSTYGMGVGWIRQPPGKALEWLAHIWWDDVKRYNPALKSRLTISKDTSKSQVVLTMTNMDPVDTATYYCARMGSDYDVWFDYWGQGTLVTVSS
VL: EIVLTQSPATLSLSPGERATLSCRASKSISKYLAWYQQKPGQAPRLLIYSGSTLQGGIPARFSGSGSGTDFTLTISSLEPEDFAVYYCQQHLDSPYTFGQGTKLEIK
notes: Fab on phage pIX
B21: Fab clone 3C01 (IL-13-62 library) (Fab, V domains shown)
VH: QVTLKESGPVLVKPTETLTLTCTVSGFSLSTYGMGVGWIRQPPGKALEWLAHIWWDDVKRYNPALKSRLTISKDTSKSQVVLTMTNMDPVDTATYYCARMGSDYDVWFDYWGQGTLVTVSS
VL: EIVLTQSPATLSLSPGERATLSCRASKSISKYLAWYQQKPGQAPRLLIYSGSTLQSGIPARFSGSGSGTDFTLTISSLEPEDFAVYYCQQHNFGPYTFGQGTKLEIK
notes: Fab on phage pIX

The binders below were run against T1, human IL-13 R130Q variant (R110Q of the mature chain) (human, UniProt P35225 35-146, Biotinylated on amines (NHS-LC-biotin, 4:1) in ELISA, panning and competition assays. The letters are unchanged.) (assay: single-point (10 nM) phage Fab ELISA on biotinylated IL-13 R130Q).
T1 construct: R130Q counts from Met 1 of the signal peptide, R110Q on the mature chain; Bought from Peprotech; also called IL-13 R110Q; b-R130Q

Binder	Signal (% of Lc16Hc7)
B1	116%
B2	122%
B3	108%
B4	136%
B5	144%
B6	148%
B7	172%
B8	144%
B9	111%
B10	108%
B11	104%
B12	139%
B13	132%
B14	122%
B15	100%
B16	108%
B17	136%
B18	111%
B19	160%
B20	112%
B21	124%
